Data from patent US20190160148A1, “COMBINATION OF PEMBROLIZUMAB AND ABEMACICLIB FOR THE TREATMENT OF CANCER” (Eli Lilly and Company, priority 2016, published 2019).
Blank lines part the entries; values can stand above or below the molecule they belong to.

Experiments:
CT26 syngeneic tumors = assay: CT26 syngeneic tumor growth, concurrent dosing; assay type: in vivo, Balb/C mice; conditions: day 24; abemaciclib 50 mg/kg for 21 days; 178G7 500 μg/dose 1 time per week, 3 doses; versus vehicle
Excerpt: CT26 is also a well-known model for immunotherapy. Studies have shown it to be sensitive to inhibitors of a co-inhibitory immune checkpoint including, CTLA-4, PD-1, PD-L1 blockade. Established sensitivity of CT26, and well known range of therapeutic efficacy of immunotherapeutic intervention make it an appropriate model for screening the activity of checkpoint immunotherapies (Grosso and Jure-Kunkel, Cancer Immunity Vol. 13, p. 5, January 2013) (Duraiswamy et al, Cancer Research, Jun. 15, 2013 73; 3591).
CT26 is a murine model, and accordingly, antibodies used in the CT26 model must bind the mouse target protein. […]
Relative changes in tumor volume compared to control are analyzed at day 24, at the point where the most animals remained in all groups for proper statistical comparison. Relative changes in tumor volume (% ΔT/C) are calculated using the formula % ΔT/C=100×ΔT/ΔC, whereby T=mean tumor volume of the compound treated group, ΔT=mean tumor volume of the compound treated group minus the mean tumor volume on the baseline day, C=mean tumor volume of the control (vehicle) group, and ΔC=mean tumor volume of the control group minus the mean tumor volume on the baseline day. […]

PD-L1/PD-1 interaction = PD-L1/PD-1 interaction (Mus musculus, UniProt Q9EP73); assay: Blockade of PD-1 binding to PD-L1; conditions: anti-murine PD-L1 clone
PD-L1/PD-1 interaction, sequence (Q9EP73 19-290): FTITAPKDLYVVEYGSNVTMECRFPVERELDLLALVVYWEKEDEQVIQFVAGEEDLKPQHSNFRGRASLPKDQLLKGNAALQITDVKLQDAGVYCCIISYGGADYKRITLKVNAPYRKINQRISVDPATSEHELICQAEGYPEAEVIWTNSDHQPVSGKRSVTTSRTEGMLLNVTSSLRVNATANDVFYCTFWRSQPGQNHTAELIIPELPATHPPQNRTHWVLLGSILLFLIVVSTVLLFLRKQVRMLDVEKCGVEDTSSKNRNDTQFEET
Excerpt: CT26 is a murine model, and accordingly, antibodies used in the CT26 model must bind the mouse target protein. To model co-inhibitory immune checkpoint therapy, in particular blockade of PD-L1/PD-1 mediated inhibition, anti-murine PD-L1 clone, 178G7 (Known herein in the examples as: anti-PD-L1 antibody or anti-PD-L1 therapy or anti-PD-L1), is produced. The HC of 178G7 is SEQ ID NO: 11, and the LC of 178G7 is SEQ ID NO: 12. […] In particular, 178G7 is used as a a surrogate agents that prevent PD-1 mediated inhibition by PD-L1. as both 178G7 and pembrolizumab block the interaction of PD-1 and PD-L1. 178G7 competes with previously identified surrogate antibody 10F.9G2 known to block PD-L1/PD-1 interaction and is a known surrogate for anti-human antibodies in the clinic (Eppihimer et al. Microcirculation 2002:9(2):133).

Molecule: CCN1CCN(Cc2ccc(Nc3ncc(F)c(-c4cc(F)c5nc(C)n(C(C)C)c5c4)n3)nc2)CC1 [abemaciclib, [5-(4-ethyl-piperazin-1-ylmethyl)-pyridin-2-yl]-[5-fluoro-4-(7-fluoro-3-isopropyl-2-methyl-3H-benzoimidazol-5-yl)-pyrimidin-2-yl]-amine]
- %T/C (relative change in tumor volume compared to control) (CT26 syngeneic tumors): 22.3%

- blocking of PD-1 binding to PD-L1 (PD-L1/PD-1 interaction): blocks PD-1 binding to PD-L1
B1: Anti-PD-L1 antibody: anti-murine PD-L1 clone 178G7, HC SEQ ID NO: 11, LC SEQ ID NO: 12; surrogate that blocks PD-1/PD-L1 interaction (antibody)
heavy: QVQLQQSGADLAKPGSSVKISCKASGYNFNSYYINWIKQTTGQGLEYIGYINTVSGTTKYSEKFKGKATLTVDKSSSTAFMQLSSLTPDDSAVYYCARGTIVLDDYWGQGVKVTVSSAETTAPSVYPLAPGTALKSNSMVTLGCLVKGYFPEPVTVTWNSGALSSGVHTFPAVLQSGLYTLTSSVTVPSSTWPSQTVTCNVAHPASSTKVDKKIVPRNCGGDCKPCICTGSEVSSVFIFPSKPKDVLTITLTPKVTCVVVDISQDDPEVHFSWFVDDVEVHTAQTRPPEEQFNSTFRSVSELPILHQDWLNGRTFRCKVTSAAFPSPIEKTISKPEGRTQVPHVYTMSPTKEEMTQNEVSITCMVKGFYPPDIYVEWQMNGQPQENYKNTPPTMDTDGSYFLYSKLNVKKEKWQQGNTFTCSVLHEGLHNHHTEKSLSHSPGK
light: DIVMTQTPSSQAVSAGEKVTMSCKSSQSLLYNEKKKNYLAWYQQKPGQSPKLLIYWASTRESGVPDRFLGSGSGTDFTLTINSVQAEDLAVYYCQQSYDFPRTFGGGTKLELKRADAAPTVSIFPPSTEQLATGGASVVCLMNNFYPRDISVKWKIDGTERRDGVLDSVTDQDSKDSTYSMSSTLSLTKADYESHNLYTCEVVHKTSSSPVVKSFNRNEC
- %T/C (relative change in tumor volume compared to control) (CT26 syngeneic tumors): 56.1%
